In patent US20090312249A1:

Experiments:
[1] = target: MD-2 (myeloid differentiation protein-2) (UniProt Q9Y6Y9); assay: SPR (BIAcore 3000), TFL amine-coupled on CM5 chip, MD-2 8-250 nM as analyte, 1:1 Langmuir model, 25 C
[2] = target: MD-2 (myeloid differentiation protein-2) (UniProt Q9Y6Y9); assay: SPR (BIAcore 3000): TFL amine-coupled on a CM5 chip, MD-2 at 8 to 250 nM as analyte, 25 C, 1:1 Langmuir fit

Chain of UniProt Q9Y6Y9 (Q9Y6Y9 19-160 limits assumed): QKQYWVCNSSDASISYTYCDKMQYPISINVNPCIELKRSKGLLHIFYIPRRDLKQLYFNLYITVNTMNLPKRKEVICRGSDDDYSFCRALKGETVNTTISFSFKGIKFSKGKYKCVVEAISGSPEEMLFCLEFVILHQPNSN

TFL (Fc-tagged hTLR4 full-length ectodomain) (Fc fusion)
Kd [1]: 0.081 µM
Kd [2]: 0.0811 µM
koff [2]: 0.00187 s⁻¹
kon [2]: 23100 M⁻¹ s⁻¹
